Source: patent US20240400689A1 (ANTENGENE BIOLOGICS, published 2024)

What was measured:
[1] = target: T1, human CD276 protein (human, UniProt Q5ZPR3 29-534); test: FACS titration on SKOV3 cells (MFI against Conc. (nM)); unit taken from the concentration axis
T1 construct: whole, on cells; for SKOV3 and the other cancer lines the protein is the cells' own; also called B7-H3; B7H3
T1 sequence (looked up): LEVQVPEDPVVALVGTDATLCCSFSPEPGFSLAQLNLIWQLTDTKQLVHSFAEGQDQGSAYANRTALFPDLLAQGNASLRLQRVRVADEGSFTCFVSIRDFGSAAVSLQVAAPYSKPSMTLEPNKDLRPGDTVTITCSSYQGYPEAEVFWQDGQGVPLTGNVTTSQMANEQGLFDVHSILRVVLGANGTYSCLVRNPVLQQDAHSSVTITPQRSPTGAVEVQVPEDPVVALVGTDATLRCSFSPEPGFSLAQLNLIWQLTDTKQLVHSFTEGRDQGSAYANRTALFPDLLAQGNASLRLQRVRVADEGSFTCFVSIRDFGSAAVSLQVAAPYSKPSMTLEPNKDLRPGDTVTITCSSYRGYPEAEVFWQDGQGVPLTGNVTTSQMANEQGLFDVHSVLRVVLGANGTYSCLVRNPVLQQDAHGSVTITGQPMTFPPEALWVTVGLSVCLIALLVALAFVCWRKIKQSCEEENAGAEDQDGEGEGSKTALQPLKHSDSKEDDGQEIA

[2] = target: T1, human CD276 protein; test: cell-based or functional assay
[3] = target: T1, human CD276 protein; test: cell-based or functional assay; remark: listed apart in the source
[4] = target: T2, HUMAN B7H3 (Biacore analyte) (human, UniProt Q5ZPR3 29-461, limits assumed); test: SPR, Biacore 8K, antibody captured, B7H3 as analyte, 1:1 binding
T2 construct: also called hB7H3
T2 sequence (looked up): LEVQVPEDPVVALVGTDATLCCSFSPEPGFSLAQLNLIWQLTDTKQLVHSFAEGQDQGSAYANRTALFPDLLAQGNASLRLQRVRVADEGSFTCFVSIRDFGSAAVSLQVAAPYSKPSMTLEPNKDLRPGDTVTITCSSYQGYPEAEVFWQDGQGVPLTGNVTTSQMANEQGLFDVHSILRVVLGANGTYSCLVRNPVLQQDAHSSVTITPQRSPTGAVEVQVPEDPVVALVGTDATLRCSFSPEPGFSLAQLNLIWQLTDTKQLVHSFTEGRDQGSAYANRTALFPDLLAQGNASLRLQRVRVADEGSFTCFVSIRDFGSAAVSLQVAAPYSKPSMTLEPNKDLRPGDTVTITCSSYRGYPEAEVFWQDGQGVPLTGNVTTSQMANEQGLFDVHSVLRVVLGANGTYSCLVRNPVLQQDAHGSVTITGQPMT

[5] = target: T1, human CD276 protein; test: cell-based or functional assay; remark: listed apart in the source
[6] = target: T1, human CD276 protein; test: FACS on SKOV3 cells
In short: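 Human IgG1 chimeric antibodies were tested for binding to trypsin-detached SKOV3 ovarian cancer cells by flow cytometry, with cells washed in FACS buffer and kept in the dark before acquisition. Titration read-out was MFI plotted against antibody concentration (nM).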

B1: mVH-mVL1-30 (antibody, V domains shown)
VH: EVQLVESGPGLVKPSQSLSLTCTVTGYSITSDYAWNWIRQFPGNKLEWMGYISHSGSTSYNPSLKSRISITRDTSKNQFFLQLNSVTTEDTATYYCARSLGRRWYFDVWGAGTTVTVSS
VL: DIVMTQSPSSLAMSVGQKVTLSCKSSQSLLQSSTQKNYLAWYQQKPGQSPKLLVYFASTRDSGVPDRFIGSGSGTEFTLTISSVQAEDLADYFCQQHYIIPFTFGAGTKLEIK
[1]
  EC50: 9.64 nM

B2: 18-F9-D8-G7 (human IgG1 chimeric antibody) (antibody, V domains shown)
VH: EVQLQQSGPELVRPGVSVKISCKGSGYTFTDYAMHWVKQSHAQSLEWIGIINTYSGDTNYNQKFKGKATMTVDKSSSTAYMGLARLTSEDSAIFYCARGGGNYPYWYFDVWGAGTTVTVSS
VL: ENVLTQSPAIMSASPGEKVTMTCRASSSVSSSYLHWYQQKSGDSPKLWIYSTSNLASGVPARFSGSGSGTSYSLTISSVEAEDAATYYCQQFSVYPLTFGAGTKLEIK
notes: human IgG1 chimeric antibody of the mouse clone
[2]
  EC50 of antibody induced CDC effect: 2.44 nM
  Top cytotoxicity (%), CDC: 70.3%
[3]
  IC50 of indirect ADC cytotoxicity on SKOV3: 0.014 nM
[4]
  Kd: 0.489 nM
  koff: 0.000239 s⁻¹
  kon: 489000 M⁻¹ s⁻¹
[5]
  EC50 of antibody induced ADCC effect on SKOV3: 0.503 µg/mL
[6]
  EC50: 0.286 µg/mL
  MFI (Max): 4610

B3: 15-C8-B5-G7 (human IgG1 chimeric antibody) (antibody, V domains shown)
VH: QVQLQQPGAELVKPGASVKLSCKASDYTFTSHWMHWVKQRPGQGLEWIGMIHPNSGTTHYNENFKNKATLTVDNSSSTAYMQLSSLTSEDSAVYYCAWGSSNSYFYAMAYWGQGTSVTVSS
VL: QAVVTQESALTTSPGETVTLTCRSSTGAVTTSNYANWVQEKPAHLFTGLIGGTNNRAPGVPARFSGSLIGDKAALTITGAQTEDEAIYFCALWFSNHLVFGGGTKLTVL
notes: as for B2
[2]
  EC50 of antibody induced CDC effect: 7.54 nM
  Top cytotoxicity (%), CDC: 86.1%
[3]
  IC50 of indirect ADC cytotoxicity on SKOV3: 0.008 nM
[4]
  Kd: 0.399 nM
  koff: 0.000196 s⁻¹
  kon: 492000 M⁻¹ s⁻¹
[5]
  EC50 of antibody induced ADCC effect on SKOV3: 0.697 µg/mL
[6]
  EC50: 0.293 µg/mL
  MFI (Max): 2140

B4: 6-D8-E7-A11 (human IgG1 chimeric antibody) (antibody, V domains shown)
VH: QVHLQQPGAELVKPGASVKLSCKASGYTFTNYWMHWVKRRPGQGLEWIGMIHPNSGTTSFNEKFKSKATLTVDKSSSTAYMQLSSLTSEDSAVYYCAGYYGSSFSWFTYWGQGTLVTVSA
VL: QAVVTQESALTTSPGGTVILTCRSSTGAVTTSNFANWVQEKPDHLFTGLIGGTSNRAPGVPVRFSGSLIGDKAALTITGAQTEDDAMYFCALWYSTHYVFGGGTKVTVL
notes: as for B2
[2]
  EC50 of antibody induced CDC effect: 1.57 nM
  Top cytotoxicity (%), CDC: 92.5%
[3]
  IC50 of indirect ADC cytotoxicity on SKOV3: 0.008 nM
[4]
  Kd: 0.749 nM
  koff: 0.000348 s⁻¹
  kon: 464000 M⁻¹ s⁻¹
[5]
  EC50 of antibody induced ADCC effect on SKOV3: 0.0668 µg/mL
[6]
  EC50: 0.402 µg/mL
  MFI (Max): 2830

B5: 7-E1-F8-F6 (human IgG1 chimeric antibody) (antibody, V domains shown)
VH: QVQLQQSGPELVKPGASVQMSCKASGYTFTDYVISWVNQRTGQGLEWIGEIYPRSGNTYYNEKFKGKATLTADKSSNTAYMQLSSLTSEDSAVYFCARFDIAYSFDYWGQGTTLTVSS
VL: DVVMTQTPLSLPVSLGDQASISCRSTQSLVHSNGVTYLHWYLQKPGQSPKLLIYKVSNRFSGVPDRFSGSGSGTDFTLKISRVEAEDLGVYFCSQGTHVPWTFGGGTKLEIK
notes: as for B2
[2]
  EC50 of antibody induced CDC effect: 1.69 nM
  Top cytotoxicity (%), CDC: 91.9%
[3]
  IC50 of indirect ADC cytotoxicity on SKOV3: 0.028 nM
[4]
  Kd: 0.855 nM
  koff: 0.000222 s⁻¹
  kon: 260000 M⁻¹ s⁻¹
[5]
  EC50 of antibody induced ADCC effect on SKOV3: 0.0177 µg/mL
[6]
  EC50: 0.982 µg/mL
  MFI (Max): 3380

B6: 16-C6-F7-F5 (human IgG1 chimeric antibody) (antibody, V domains shown)
VH: QIQLVQSGPEVKKPGETVKISCKASGYTFTKYGINWVKQAPGEGLKWMGWIWTYTGKPTYGDDFKGRFAFSLETSASTAYLQISDLKIEDMATYFCARDDGYYYTMNYWGQGTSVTVSS
VL: DIVMTQTPLSLPVSLGDQASISCRSSQSLLHTNGDTYLHWYLQKAGQPPKLLIYKVSNRFSGVPDRFSGSGSGTDFTLKISRVEAEDLGVYFCSQSTHIPWTFGGGTKLEIK
notes: as for B2
[2]
  EC50 of antibody induced CDC effect: 1.28 nM
  Top cytotoxicity (%), CDC: 92.1%
[3]
  IC50 of indirect ADC cytotoxicity on SKOV3: 0.009 nM
[4]
  Kd: 0.645 nM
  koff: 0.000243 s⁻¹
  kon: 377000 M⁻¹ s⁻¹
[5]
  EC50 of antibody induced ADCC effect on SKOV3: 0.00664 µg/mL
[6]
  EC50: 0.186 µg/mL
  MFI (Max): 5350

B7: 25-C8-D7-C5 (human IgG1 chimeric antibody) (antibody, V domains shown)
VH: EVQLQESGGGLVKPGGSLKFSCAASGFTFSTYAMSWVRQTPEKRLEWVATISGGGIDTYYPDSVKGRFTISRDNAKNTLYLQMNSLRSEDTAMYYCARQGSKGWGAMDYWGQGTSVTVSS
VL: QIVLTQSPAIMSASPGEKVTMTCRASSSVSFMHWYQQKSGTSPKRWIYETSKLASGVPDRFSGSGSGTSYSLTISSMEAEDAATYYCQQWSSNPLTFGAGTKLELK
notes: as for B2
[2]
  EC50 of antibody induced CDC effect: 2.42 nM
  Top cytotoxicity (%), CDC: 91.4%
[3]
  IC50 of indirect ADC cytotoxicity on SKOV3: 0.018 nM
[4]
  Kd: 1.2 nM
  koff: 0.000243 s⁻¹
  kon: 203000 M⁻¹ s⁻¹
[5]
  EC50 of antibody induced ADCC effect on SKOV3: 0.123 µg/mL
[6]
  EC50: 2.03 µg/mL
  MFI (Max): 3480

B8: 20-A2-D10-G8 (human IgG1 chimeric antibody) (antibody, V domains shown)
VH: QVQLQQSGPELVRPGVSVKISCKGSGYTFTDYTMHWVKESHAQSLEWIGVISTYYGNTNYNQNFKGKATLTVDKSSSTAYMELAGLTSEDSAIYYCARASYGSGYGPYYWYFDVWGAGTTVTVSS
VL: DIQMTQSPASLFASVGETVTITCRASEKIYSYLAWYFQKQGKSPQFLVYNANALAEGVPSRFSGSGSGTQFSLKIKSLQPEDFGTYYCQHHYGSPVTFGAGSKLELK
notes: as for B2
[2]
  EC50 of antibody induced CDC effect: 1.92 nM
  Top cytotoxicity (%), CDC: 85.1%
[3]
  IC50 of indirect ADC cytotoxicity on SKOV3: 0.007 nM
[4]
  Kd: 0.555 nM
  koff: 0.000282 s⁻¹
  kon: 508000 M⁻¹ s⁻¹
[5]
  EC50 of antibody induced ADCC effect on SKOV3: 0.263 µg/mL
[6]
  EC50: 0.791 µg/mL
  MFI (Max): 3110

B9: 25-D3-G4-C6 (human IgG1 chimeric antibody) (antibody, V domains shown)
VH: EIQLQQTGPELVKPGASVKISCKASGYSFTDYIILWVKQSHGMSLEWIGNINPYYNSTYYNLKFKGKATLTVDKSSSTAYMQLDSLTSEDSAVYYCARDSFDWYFGVWGAGTTVTVSS
VL: DVVMTQTPLSLPVSLGDQASISCRSSQSLVHSNGNTYLHWYLQKPGQSPKLLIYKVSNRFSGVPDRFSGSGSGTDFTLKISRVETEDLGIYFCSQSTHVPPLTFGAGTKLELK
notes: as for B2
[2]
  EC50 of antibody induced CDC effect: 2.41 nM
  Top cytotoxicity (%), CDC: 89.7%
[3]
  IC50 of indirect ADC cytotoxicity on SKOV3: 0.023 nM
[4]
  Kd: 2.31 nM
  koff: 0.00025 s⁻¹
  kon: 108000 M⁻¹ s⁻¹
[5]
  EC50 of antibody induced ADCC effect on SKOV3: 0.0372 µg/mL
[6]
  EC50: 1.27 µg/mL
  MFI (Max): 3450

B10: MGC018 (antibody, V domains shown)
VH: EVQLVESGGGLVKPGGSLRLSCAASGFTFSSYGMSWVRQAPGKGLEWVATINSGGSNTYYPDSLKGRFTISRDNAKNSLYLQMNSLRAEDTAVYYCARHDGGAMDYWGQGTTVTVSS
VL: DIQMTQSPSSLSASVGDRVTITCRASESIYSYLAWYQQKPGKAPKLLVYNTKTLPEGVPSRFSGSGSGTDFTLTISSLQPEDFATYYCQHHYGTPPWTFGQGTRLEIKR
[2]
  EC50 of antibody induced CDC effect: 1.67 nM
  Top cytotoxicity (%), CDC: 93.3%
[3]
  IC50 of indirect ADC cytotoxicity on SKOV3: 0.013 nM
[4]
  Kd: 0.459 nM
  koff: 0.000408 s⁻¹
  kon: 889000 M⁻¹ s⁻¹
[6]
  EC50: 0.385 µg/mL
  MFI (Max): 2540
